Laboratory results from patent US20020034767A1, “Compositions and methods for modulating the activity of G protein-coupled receptor kinases GRK5 and GRK6” (priority 1993, published 2002).

Tests used:
Assay in all cases: cell-based or functional assay
[1] = molecular target: rhodopsin in urea treated rod outer segments (bovine) (UniProt P02699)
[2] = molecular target: G protein-coupled receptor kinase GRK6 (human) (human) (UniProt P43250)
[3] = molecular target: G protein-coupled receptor kinase GRK5 (human) (human) (UniProt P34947)
Chain of G protein-coupled receptor kinase GRK5 (human) (human) (P34947 whole entry E78G): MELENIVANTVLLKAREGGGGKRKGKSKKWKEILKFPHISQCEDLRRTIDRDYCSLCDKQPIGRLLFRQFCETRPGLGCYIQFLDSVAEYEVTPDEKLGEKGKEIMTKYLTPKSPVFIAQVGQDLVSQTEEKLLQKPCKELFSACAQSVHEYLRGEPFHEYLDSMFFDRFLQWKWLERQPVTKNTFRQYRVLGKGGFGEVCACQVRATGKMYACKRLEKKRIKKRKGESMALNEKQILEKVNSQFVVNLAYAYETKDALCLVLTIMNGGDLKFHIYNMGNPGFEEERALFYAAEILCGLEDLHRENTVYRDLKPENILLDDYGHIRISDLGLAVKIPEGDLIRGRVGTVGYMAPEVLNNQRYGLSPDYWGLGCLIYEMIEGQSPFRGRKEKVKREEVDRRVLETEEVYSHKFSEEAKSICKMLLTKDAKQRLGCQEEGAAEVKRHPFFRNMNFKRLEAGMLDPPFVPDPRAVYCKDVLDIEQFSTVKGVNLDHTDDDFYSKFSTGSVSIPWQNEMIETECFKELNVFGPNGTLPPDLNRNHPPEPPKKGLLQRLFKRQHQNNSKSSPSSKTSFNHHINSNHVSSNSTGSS

Chain of rhodopsin in urea treated rod outer segments (bovine) (P02699 whole entry): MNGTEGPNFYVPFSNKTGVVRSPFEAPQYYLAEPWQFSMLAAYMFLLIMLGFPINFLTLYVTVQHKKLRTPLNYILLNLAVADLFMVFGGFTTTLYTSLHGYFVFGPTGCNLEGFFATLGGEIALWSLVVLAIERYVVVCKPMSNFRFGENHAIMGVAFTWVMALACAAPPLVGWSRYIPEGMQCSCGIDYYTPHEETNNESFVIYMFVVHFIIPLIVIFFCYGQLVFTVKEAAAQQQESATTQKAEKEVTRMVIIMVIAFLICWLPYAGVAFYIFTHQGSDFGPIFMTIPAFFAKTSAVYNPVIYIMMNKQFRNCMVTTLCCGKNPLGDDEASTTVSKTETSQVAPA
Chain of G protein-coupled receptor kinase GRK6 (human) (human) (P43250 other isoform, or with tags, fused parts or gaps limits assumed): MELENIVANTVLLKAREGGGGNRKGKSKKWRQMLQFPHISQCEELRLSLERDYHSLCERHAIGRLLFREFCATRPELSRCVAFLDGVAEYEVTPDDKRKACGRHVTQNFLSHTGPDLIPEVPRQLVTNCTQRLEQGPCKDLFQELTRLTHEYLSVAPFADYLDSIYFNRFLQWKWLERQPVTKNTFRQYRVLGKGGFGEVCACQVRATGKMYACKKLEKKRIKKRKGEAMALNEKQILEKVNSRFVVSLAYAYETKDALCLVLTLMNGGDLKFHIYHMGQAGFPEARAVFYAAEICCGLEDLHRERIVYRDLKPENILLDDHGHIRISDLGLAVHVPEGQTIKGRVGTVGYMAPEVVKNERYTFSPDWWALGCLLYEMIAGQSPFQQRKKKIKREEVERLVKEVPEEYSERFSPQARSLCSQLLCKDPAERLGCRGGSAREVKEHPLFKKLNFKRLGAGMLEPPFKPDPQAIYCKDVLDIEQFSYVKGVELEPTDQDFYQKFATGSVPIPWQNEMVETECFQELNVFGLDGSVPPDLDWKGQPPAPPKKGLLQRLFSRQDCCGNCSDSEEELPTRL

| light-dependent rhodopsin phosphorylation by Sf9 cell supernatant [1] | IC50 of inhibition of kinase activity [2] | fold less effective as inhibitor compared to GRK5 [2] | Substance | further results |
| --- | --- | --- | --- | --- |
|  | 487 nM | 6 fold | polyaspartic acid (peptide) |  |
|  | 400 nM | 16 fold | polyglutamic acid (peptide) |  |
| 2470 pmol/min/mg |  |  | β-adrenergic receptor kinase (enzyme) |  |

Further lines, the substance ahead of its results:

| Substance | light-dependent rhodopsin phosphorylation by Sf9 cell supernatant [1] | IC50 of inhibition of kinase activity [2] | fold less effective as inhibitor compared to GRK5 [2] | further results |
| --- | --- | --- | --- | --- |
| G protein-coupled receptor kinase GRK5 (human) (from UniProt P34947 1-590) (enzyme) | 1120 pmol/min/mg |  |  |  |
| G protein-coupled receptor kinase GRK6 (human) (from UniProt P43250 1-576) (enzyme) |  |  |  | specific activity of phosphorylation of bleached rhodopsin by Sf9 cell supernatant (pmol/min/mg protein) [1]: 81 |
| polylysine, a 14-16 amino acid peptide |  |  |  | fold activation of kinase activity [3]: 2.6 fold |
